Experimental data taken from the supplement of paper PMC9170038.

Test system: K4 kissing-loop RNA reporter
Assay: apparent KD of K4 kissing-loop reporter; higher = weaker reporter binding
Conditions: Eterna round: R107
Procedure: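 RNA-MaP round R107: designed RNA switches with theophylline, tryptophan, arginine or FMN aptamers are transcribed on-chip within common flanks. They are titrated with a labelled K4 kissing-loop RNA reporter in RNA-MaP buffer (100 mM Tris pH 7.5, 80 mM KCl, 4 mM MgCl2), without ligand or with the indicated ligand. Median apparent KD per design.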

[1] = input ligand: theophylline 20 uM
[2] = input ligand: tryptophan 2.4 mM
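Further: bound reporter read as fluorescence of individual clusters on recovered sequencing chips by microscopy, with normalized cluster intensities fitted with a binding model.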

| Sequence | apparent KD of K4 kissing-loop reporter (input ligand: FMN 200 uM) [nM] | apparent KD of K4 kissing-loop reporter (input ligand: arginine 13.2 mM) [nM] | apparent KD of K4 kissing-loop reporter (input ligand: none) [nM] | apparent KD of K4 kissing-loop reporter [1] [nM] | apparent KD of K4 kissing-loop reporter [2] [nM] |
| --- | --- | --- | --- | --- | --- |
| GGGCUAUAGUGAUGUUAUUGUCUAAACGAUACCAGUUCACCCGUGAACCCUUGGCAGCGUGGUGUAACCUAUCCUCGUUGCACUG [theeternabot_sameState_KL_Theo_A_28] | 640 | 595 | 744 | 523 | 554 |
| UAGUCAUACAGAGGAUAUCGUAUGAGUGAUGUUCAAGUGCGUACAUCAACUUGAUGUACAGAUAGACGAGAAGGCUGUAUGACUA [FMB B SS t6] | 303 | 382 | 487 | 449 | 492 |
| CUUGGUGGCUACAUCAGGAAUUGCGGCGGAAAGGAUAUUCAUUGGCGAAGAAGGUUCCAAGUGACGAGUGAUGUUCUUCGUAAGG [theeternabot_sameState_KL_FMN_A_13] | 422 | 434 | 802 | 579 | 779 |
| AUAUUAAGCGGAAGGAGCGGCUGAACCAGUGAUGUUGGUUAAUCCAAGUGAUGUUGGAAAAGCCAGGUAGGUCGCCGCUAUAUAU [Same State Arg B GF 1] | 725 | 424 | 695 | 569 | 640 |
| GCAUGACGGUAAGGAUAUAGAUAAUCCUUAUAUACGUCGAGUGAUGUUCGAUGUGCCAAGGCACAUCUAGAAGGUACUGUUAGGU [Same State FMN B GF 18] | 772 | 760 | 1020 | 725 | 873 |
| UUUUACGAGUGAUGUUCGUAUUGUAAUAGUUAGGAUAUCGUUUUUUCGAGAAGGAACUUCGAAGUGAUACGAAAGUAUCGCUUCG [FMN A 10] | 138 | 142 | 154 | 143 | 130 |
| AGUGAUGUGGGAAGGAGCGCUAGUACACUUCAGUGAUGUUGAAGUGAUGAAUUAGUGUAUUGGCAGGUAGGUCGCCUAGAUGUUA [KL-XARG-B14] | 97.4 | 59.1 | 82.9 | 65.4 | 72.5 |
| GUGCGGCUAGUGAUGUUGGUUGUGUGGGAAGGAGCGCAGAUACAUGCAGGUAGGUCGCCCACACCUCUGAAAGGAGGCUAAUUCA [KL-SSArg-A15] | 418 | 330 | 411 | 325 | 350 |
| AAGGUUCGUGGAAGGAGCGCCCGUGCGACUCGUUCAGUAAGUGAAGUCCGAGUGAUGUUCGGGCAGGUAGGUCGCCACGGGCAAA [Usontezaon] | 196 | 137 | 160 | 123 | 157 |
| UGCAUGCUUGUAGUGAUGUUACAAGAUGAUACCAGUGCUUUUUUGCACCCUUGGCAGCGUCAUAGUGCAUGCACGUCGAAAGACG | 219 | 153 | 211 | 320 | 201 |
| AGGAGCGUGGGAUGGAAAUCGCACGCUCCUCGAGGACCGGUACGGCCGCCACUCGCUCGCGCCGAGUGAUGUUCGGCCGGCGAAG [#2 Same State - Tryptophan A Attempt #15 (HarryS)] | 579 | 194 | 128 | 129 | 226 |
| CCGCUACCCUCAGGAUAUUAAAUAUUAGUGAUGUUAGUAAACCGAUGGCGAAAGCCAUCGGUAUGUUGAGAAGGGAGGGUAGCGG [whbob_SS_FMNB__2th197] | 403 | 1810 | 2240 | 891 | 880 |
| GCAGUGAUGUUGCGCAGGUACAGUGGAGUGCGAGGACCGGUACGGCCGCCACUCGUACAGAACUAGCUAAUGUAUGGAUAGGUGA [#11 K4 Tryptophan A Same State] | 354 | 329 | 368 | 470 | 312 |
| ACCGCAUUGGGAUGAUCCCAAUGCGCUGGUCGAGGACCGGUACGGCCGCCACUCGUCCAGUGAUGUUGGACUAGGGCAACUGAAG [Bileesma] | 519 | 270 | 261 | 303 | 109 |
| AAUAUAGUGAUGUUAUAUAAGAAGGAGUUACGAGGACCGGUACGGCCGCCACUCGAAACGAGUGAGGAUUUGGGAGAUUGGGUUU [SSTryptA.M] | 493 | 443 | 474 | 324 | 389 |
| AUGUUGAGCGGAAGGAGCGGCUGAGCCAGUGAUGUUGGUUAAUCCAAGUGAUGUUGGAAAAGCCAGGUAGGUCGCCGUUUUACGU [whbob_SS_Arginine_B_2t145] | 1010 | 597 | 1190 | 807 | 887 |
| AGAGUCACAUAAGGAUAUCCCUUGACGGGAACCAAGUGAUGUUUGGUUAGACGACCUCUUAUCACGGGAGAAGGUAUAUUUGUAU [theeternabot_sameState_KL_FMN_B_27] | 724 | 580 | 889 | 676 | 612 |
| AAAAUAAAGCAGUCAAUCGGAGUGAUGUUCCGAGGACCGGUACGGCCGCCACUCGAGAGUCCAAAGGACUCAUGGCGAGACUGCA [#SwitchBubble 17 #K4Early] | 97 | 94.8 | 93.2 | 92.6 | 90.1 |
| CGCGCGCGUUGAGAGGCGCGCGCGAAUGAUACCAGUAUAUAAGAAUACCCUUGGCAGCAUAAGAAAGAUAUAGUGAUGUUGUAUA [SSTheophA.E] | 67.3 | 264 | 293 | 466 | 188 |
| UGUAUGUGAUGUGAUACCAGUGAAGAGCCAGUGAUGUUGGUAGAACUGGUAUAUAAAUAACACCCUUGGCAGCACAGUCACGUAC [whbob_Ex_Theo_B_sa100] | 305 | 241 | 297 | 279 | 242 |
| AGUCGAGAUUAUAGACUCGACAGGUCAGAAGGAGCGACGAAUUCGUCAGGUAGGUCGCUGACAUAGCAGUGAUGUUGCUAUACGG [Arg A SS t1] | 149 | 132 | 150 | 163 | 126 |
| GUUACGCAUGGAAGGAGCGCACUCCGGUUGAUCGACACAGUGAUGUUGUGGUUCAUUCGAAUGCAGGUAGGUCGCCAUGUGUAAC [Ex Arginine B K4 15] | 808 | 593 | 847 | 886 | 804 |

| Sequence | apparent KD of K4 kissing-loop reporter (input ligand: FMN 200 uM) [nM] | apparent KD of K4 kissing-loop reporter (input ligand: arginine 13.2 mM) [nM] | apparent KD of K4 kissing-loop reporter (input ligand: none) [nM] | apparent KD of K4 kissing-loop reporter [1] [nM] | apparent KD of K4 kissing-loop reporter [2] [nM] |
| --- | --- | --- | --- | --- | --- |
| CCCGGUCCACGAAGGAGCGCCGUGCAGUGAUGUUGCAGUUAGAUCCAGUGAUGUUUGGGCCGGCAGGUAGGUCGCGUGGCCCGGG [Excusion Arginine B GF 24] | 199 | 197 | 250 | 197 | 188 |
| UGAUAGGACAGAAGGAGCGGCAGUGAUGUUGCCAAAAGGAUAAGGUGUCAAAAGACACCCUGCCAGGUAGGUCGCUGUCCUAUCU | 179 | 366 | 259 | 298 | 208 |
| UGACAUUGCUCAGAUACCAGACUUGAGGAACACCCAAGUGCCAAAUACGUACAAAUAAAAGUCCCUUGGCAGCUGAGCAAUGUCU [TheoBX 12] | 58.3 | 23.5 | 48.5 | 148 | 38.5 |
| GGAUAACAGGCAGGAUAUGCUUAGUAGUAAGGCCAUAUAUACGUAUAGAGUGAUGUUUUGUACAAGGCAGAAGGGCUAAAUCCAU [FMN B Excl V2 (+4G)] | 536 | 240 | 421 | 393 | 254 |
| AUCGUUGUCUGAGGAUAUCGUUUAACUGUAGUGAUGUUACAGAAAAUUCAUAUUAUAUUUUCUAUUCGAGAAGGCAGACUACGUA [JR_ExcFMNB_Sub016] | 172 | 133 | 135 | 123 | 138 |
| UUUAAAUAUAGUGAUGUUAUAUAACAAUGACGAGGACCGGUACGGCCGCCACUCGAGAGAGAUAAUGGUCGUUAGAAUCUAACGC [AstrosSSTryA#5] | 760 | 778 | 685 | 963 | 484 |
| AGUUCUUGCCGAAGGAGCGAGGCAGAGUGAUGUUCUGCAGGAGGUCGAAAGACCUCCCUGCCUCAGGUAGGUCGCGGCAUGAACA [Omei KL Arginine B Exc A v1] | 587 | 590 | 1250 | 566 | 478 |
| GUGCAGUGAUGUUGCACGAGGAAAGACGAUACCAGCCGUAAAUAAGGCCCUUGGCAGCGUAGGCUAGCAUAAAGUACGCUAGUCC [Enarines] | 110 | 105 | 109 | 101 | 88.4 |
| AGCAGUGAUGUUGCUCAAUUUACAGGUGAUACCAGAGGUCAGUCUCUCCCUUGGCAGCACUUCAUACGAUGAUGUUUUAUCGGCC [theeternabot_sameState_KL_Theo_A_50] | 374 | 321 | 370 | 378 | 313 |
| UGGACCAAGGAGUGAUGUUCCAAAUGUGAUACCAGCCACGAAAGUGGCCCUUGGCAGCACUGCCAGGACGAAAACGUCCGGUCCU [#SwitchBubble 12 #StaticStem #K4Early] | 358 | 367 | 391 | 777 | 261 |
| UGAUUUAACUGAAGGAGCGGCAAUUGAUAAGUAAAUAUAGUGAUGUUAUAUAAGAUAGAGAGCCAGGUAGGUCGCAGAGGGAGGA [ExArgB.J] | 169 | 139 | 159 | 159 | 129 |
| UAAAUUAAGCUUUGCUGAUUAAUAAGCGAUACCAGCAAAUAAUGAUGCCCUUGGCAGCGUUAUAAUCUAGUGAUGUUAGAUUAGU [Not much to say about this one] | 92.6 | 106 | 101 | 103 | 85 |
| CGCCGCAAGGCGAGCGCUCCCACUCCGGAAGGAGCGCCCGUAAGGGCAGGUAGGUCGCCGGAGUGAUGUUCCGGUGGAGGGCUCG [#2 Exclusion - Arginine A Attempt #14 (Inspired by Omei)] | 226 | 224 | 469 | 33 | 184 |
| GUGUAGAAGUGAGGAUAUCGAUUUAAGAAUAAGCAGUGAUGUUGCAAGCAGGAGGAAUAAGAUUAACGAGAAGGCGUGGAUAUAG [FMN B Exclusion; Euphoria Solution] | 104 | 110 | 125 | 141 | 99.1 |
| CUAGAAGUGAUGUUUCAUAGUAAAUCUGAUACCAGCAUUAAACCCUGCCCUUGGCAGCAGAAUGGGCUGAUAGACUCCUGCAGCU [theeternabot_sameState_KL_Theo_A_36] | 220 | 199 | 228 | 208 | 182 |
| GGUAGCAUGGCGGCCGCCACUAUAAAGAAUCCAAAGGAUUCUAGGUAGUGAUGUUACCAUAGCUAUAGGACCGGGCCAUGCUACC | 156 | 120 | 174 | 121 | 56.5 |
| AAACUUGCAGUGAUGUUGCAAGUAGGUGAUACCAGCAUCGAAAGAUGCCCUUGGCAGCACCAAAACAUCACUUAGGUGCUGUCUA [(H1)-(H2)-(T1)-(T2)-(H)'-(T)'_Design6] | 757 | 494 | 622 | 603 | 614 |
| UGAUACCAGACGGCCGCCACUUCCGUAAGUCAAAGACUUACCAAGGGAAUCGUCCAGUGAUGUUGGAGGACCGGGUCUGGUAUCU [FiskerMod 6 - Jieux - Exclusion - Tryptophan B] | 960 | 744 | 1260 | 959 | 788 |
| AAGCCAGAGAUUGCUGCGGGUUCCAGAGAUACCAGCCGUAUUGAAGGCCCUUGGCAGCUCGAGUGAUGUUCGAGCCGUCUCCGGC [Onte] | 111 | 110 | 114 | 116 | 113 |
| CUAGGCCCUCGGCGGGACAUUGCGUGGGAAGGAGCGCAGAUAACUGCAGGUAGGUCGCCCAGUGAUGUUGGGCGAAUAUUGGUCA [Esinabige] | 102 | 98.3 | 124 | 120 | 110 |
| GAUGCAUAUUCCUGGAGGAAGAUGGUUAAGAAGGAUAUCAAAGCCGUGAGAAGGUCUAAACCUAAUAGUCGAGUGAUGUUCGACC [theeternabot_sameState_KL_FMN_A_35] | 231 | 309 | 356 | 428 | 278 |
